Experimental data: patent US20190054150A1 (AEQUUS BIOPHARMA, published 2019)
Square brackets hold non-standard residues; d marks the D form. Ends that are not written are not given here. Nle = CCCC[C@H](N)C(=O)O

Columns and labels:
Experiment in all cases: cell-based or functional assay
MCR1 = MCR1 (human, UniProt Q01726 1-317)
MCR4 = MCR4 (human, UniProt P32245 1-332)
MCR3 = MCR3 (human, UniProt P41968 1-323)
MCR5 = MCR5 (human, UniProt P33032 1-325)
Sequence of MCR5 (P33032 whole entry): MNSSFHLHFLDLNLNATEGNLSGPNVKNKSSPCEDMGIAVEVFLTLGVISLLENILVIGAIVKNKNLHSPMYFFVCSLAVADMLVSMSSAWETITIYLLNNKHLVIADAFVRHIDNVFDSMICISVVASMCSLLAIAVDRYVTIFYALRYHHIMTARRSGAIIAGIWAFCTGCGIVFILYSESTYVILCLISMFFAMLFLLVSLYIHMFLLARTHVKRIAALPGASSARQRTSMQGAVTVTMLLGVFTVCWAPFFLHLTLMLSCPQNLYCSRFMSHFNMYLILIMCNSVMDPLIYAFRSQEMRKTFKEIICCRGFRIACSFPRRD

Sequence of MCR3 (P41968 whole entry): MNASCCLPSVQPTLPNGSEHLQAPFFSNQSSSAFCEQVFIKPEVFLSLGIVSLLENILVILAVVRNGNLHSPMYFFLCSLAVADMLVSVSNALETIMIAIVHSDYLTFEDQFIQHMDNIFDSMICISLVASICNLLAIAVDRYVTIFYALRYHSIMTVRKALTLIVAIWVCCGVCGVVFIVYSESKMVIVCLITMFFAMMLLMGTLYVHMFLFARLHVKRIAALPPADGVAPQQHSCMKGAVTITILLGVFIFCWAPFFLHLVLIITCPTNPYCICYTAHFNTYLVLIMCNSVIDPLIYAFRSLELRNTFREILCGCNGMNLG
Sequence of MCR4 (P32245 whole entry): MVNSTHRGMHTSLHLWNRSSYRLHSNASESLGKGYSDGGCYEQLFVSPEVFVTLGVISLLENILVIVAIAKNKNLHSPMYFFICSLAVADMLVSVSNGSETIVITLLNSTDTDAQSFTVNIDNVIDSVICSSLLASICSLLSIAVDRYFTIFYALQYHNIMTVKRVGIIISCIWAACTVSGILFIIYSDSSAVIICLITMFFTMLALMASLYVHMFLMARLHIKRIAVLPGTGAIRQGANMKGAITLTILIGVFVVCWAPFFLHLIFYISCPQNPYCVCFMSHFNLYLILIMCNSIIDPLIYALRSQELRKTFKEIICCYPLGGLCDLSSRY
Sequence of MCR1 (Q01726 whole entry): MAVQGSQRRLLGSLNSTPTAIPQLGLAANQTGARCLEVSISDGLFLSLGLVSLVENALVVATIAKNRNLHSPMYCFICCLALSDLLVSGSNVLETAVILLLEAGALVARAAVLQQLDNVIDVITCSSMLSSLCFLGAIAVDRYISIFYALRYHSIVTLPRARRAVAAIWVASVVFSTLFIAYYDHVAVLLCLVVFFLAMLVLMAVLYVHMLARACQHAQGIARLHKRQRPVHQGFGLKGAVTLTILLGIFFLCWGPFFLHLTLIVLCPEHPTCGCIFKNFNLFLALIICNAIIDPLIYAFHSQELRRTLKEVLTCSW

Binder | MCR1 EC50 (nM); cAMP production, LANCE cAMP assay, CHO-MCR1 cells, cell pool C (MCR1) [nM] | MCR4 EC50 (nM); cAMP production, LANCE cAMP assay, CHO-MCR4 cells, cell pool C (MCR4) [nM] | MCR3 EC50 (nM); cAMP production, LANCE cAMP assay, CHO-MCR3 cells, cell pool C (MCR3) [nM] | MCR5 EC50 (nM); cAMP production, LANCE cAMP assay, CHO-MCR5 cells, cell pool C (MCR5) [nM]
SYSMEHFRWGKPVGKKRRAVKVYPGGGGSGGGGSSYS[Nle]EH[dF]RWGKPV [ACTH1-24-point-5-10aa-NDP-α-MSH] | 0.69 | 2.8 | 1 | 11
SYSMEHFRWGKPVGKKAAAVKVYPGGGGSGGGGSSYS[Nle]EH[dF]RWGKPV (ends and bridges not checked) [ACTH1-24-point-3-5-10aa-NDP-α-MSH] | 0.78 | 3.8 | 1.1 | 16
SYSMEHFRWGKPVGKKRRAVKVYPGGGSSYS[Nle]EH[dF]RWGKPV [ACTH1-24-point-5-4aa-NDP-α-MSH] | 0.32 | 1.8 | 0.68 | 20
SYSMEHFRWGKPVGAARRPVKVYPGGGGSGGGGSSYS[Nle]EH[dF]RWGKPV (ends and bridges not checked) [ACTH1-24-point-1-2-10aa-NDP-α-MSH] | 0.45 | 2.3 | 0.58 | 13
SYSMEHFRWGKPVGKKAAAVKVYPGGGSSYS[Nle]EH[dF]RWGKPV (ends and bridges not checked) [ACTH1-24-point-3-5-4aa-NDP-α-MSH] | 0.3 | 2.4 | 0.61 | 14
SYSMEHFRWGKPVGKKRRPVKVYPGGGGSGGSYS[Nle]EH[dF]RWGKPV (ends and bridges not checked) [ACTH1-24-7aa-NDP-α-MSH] | 0.24 | 1.5 | 0.85 | 13
SYSMEHFRWGKPVGAARRPVKVYPGGGSSYS[Nle]EH[dF]RWGKPV (ends and bridges not checked) [ACTH1-24-point-1-2-4aa-NDP-α-MSH] | 0.25 | 1.7 | 0.42 | 11
SYSMEHFRWGKPVGKKRRAVKVYPGGGGSGGSYS[Nle]EH[dF]RWGKPV [ACTH1-24-point-5-7aa-NDP-α-MSH] | 0.22 | 2.1 | 0.76 | 12
SYSMEHFRWGKPVGAARRPVKVYPGGGGSGGSYS[Nle]EH[dF]RWGKPV (ends and bridges not checked) [ACTH1-24-point-1-2-7aa-NDP-α-MSH] | 0.3 | 2.3 | 0.47 | 10
SYSMEHFRWGKPVGKKAAAVKVYPGGGGSGGSYS[Nle]EH[dF]RWGKPV (ends and bridges not checked) [ACTH1-24-point-3-5-7aa-NDP-α-MSH] | 0.41 | 2.4 | 0.72 | 8.5
SYSMEHFRWGKPVGKKRRPVKVYPGGGGSGGGGSSYS[Nle]EH[dF]RWGKPV (ends and bridges not checked) [ACTH1-24-linker-linker-NDP-α-MSH] | 0.39 | 1.8 | 0.8 | 9.6
SYSMEHFRWGKPVGKKRRPVKVYPGGGSSYS[Nle]EH[dF]RWGKPV (ends and bridges not checked) [ACTH1-24-4aa-NDP-α-MSH] | 0.41 | 1.9 | 0.92 | 9.3
Ac-SYS[Nle]EH[dF]RWGKPVGGGGSGGGGSSYSMEHFRWGKPVGKKRRPVKVYP [NDP-α-MSH-linker-linker-ACTH1-24] | 0.46 | 2.2 | 1.8 | 9.8
